{
  "source": "IntAct's records for PubMed 18927509",
  "parents": {"B1": {"name": "Cell cycle serine/threonine-protein kinase CDC5/MSD2 (Saccharomyces cerevisiae), P32562 (parent)", "chain": "MSLGPLKAINDKQLNTRSKLVHTPIKGNTADLVGKENHFKQTKRLDPNNDHHHQPAQKKKREKLSALCKTPPSLIKTRGKDYHRGHFLGEGGFARCFQIKDDSGEIFAAKTVAKASIKSEKTRKKLLSEIQIHKSMSHPNIVQFIDCFEDDSNVYILLEICPNGSLMELLKRRKVLTEPEVRFFTTQICGAIKYMHSRRVIHRDLKLGNIFFDSNYNLKIGDFGLAAVLANESERKYTICGTPNYIAPEVLMGKHSGHSFEVDIWSLGVMLYALLIGKPPFQARDVNTIYERIKCRDFSFPRDKPISDEGKILIRDILSLDPIERPSLTEIMDYVWFRGTFPPSIPSTVMSEAPNFEDIPEEQSLVNFKDCMEKSLLLESMSSDKIQRQKRDYISSIKSSIDKLEEYHQNRPFLPHSLSPGGTKQKYKEVVDIEAQRRLNDLAREARIRRAQQAVLRKELIATSTNVIKSEISLRILASECHLTLNGIVEAEAQYKMGGLPKSRLPKIKHPMIVTKWVDYSNKHGFSYQLSTEDIGVLFNNGTTVLRLADAEEFWYISYDDREGWVASHYLLSEKPRELSRHLEVVDFFAKYMKANLSRVSTFGREEYHKDDVFLRRYTRYKPFVMFELSDGTFQFNFKDHHKMAISDGGKLVTYISPSHESTTYPLVEVLKYGEIPGYPESNFREKLTLIKEGLKQKSTIVTVD", "partner": "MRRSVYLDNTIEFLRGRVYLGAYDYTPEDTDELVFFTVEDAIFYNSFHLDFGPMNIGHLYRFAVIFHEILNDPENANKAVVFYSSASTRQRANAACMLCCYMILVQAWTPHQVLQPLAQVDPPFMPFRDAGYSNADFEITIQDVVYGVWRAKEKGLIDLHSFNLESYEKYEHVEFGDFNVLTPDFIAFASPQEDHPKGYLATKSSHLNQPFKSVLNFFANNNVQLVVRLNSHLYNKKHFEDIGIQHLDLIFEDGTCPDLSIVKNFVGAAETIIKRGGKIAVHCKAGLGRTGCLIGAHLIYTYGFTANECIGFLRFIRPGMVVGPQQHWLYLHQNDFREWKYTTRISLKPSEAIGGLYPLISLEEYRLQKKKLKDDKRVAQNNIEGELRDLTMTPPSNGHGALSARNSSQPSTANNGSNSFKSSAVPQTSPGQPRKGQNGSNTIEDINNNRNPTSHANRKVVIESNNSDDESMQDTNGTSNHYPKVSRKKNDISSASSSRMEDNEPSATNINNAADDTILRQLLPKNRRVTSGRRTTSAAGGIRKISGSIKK"}},
  "data": [
    {"variants_of": "B1", "conditions": "with cdc14_yeast CDC14, Q00684", "values": [
      {"variant": "H641A;K643M", "effect of a mutation on the interaction": "decreasing interaction"}
    ]}
  ]
}
